Experiment: yeast display, Sf9 membrane polyspecificity reagent, FACS + sequencing; frameworks hold sequencing errors
How it was run: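 Sorting gates, low and high (top ~1%), were placed on anti-HA fluorescence to track expression and on streptavidin fluorescence to track reagent binding. A clone's polyreactivity label is taken from the gate it came out of. The reagent was 10% biotinylated, detergent-solubilized Sf9 membrane, applied for 1 hour at 4 °C to galactose-induced yeast display cells.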

| Sequence | polyreactivity (PSR sort gate) |
| --- | --- |
| QVQLVESGGGLVQAGGSLRLSCAASGFTFAVYAMGWYRQAPGKERELVAAIDSSDGSTSYADSVKGRFTISRDNAKNTVYLQMNSLKPEDTAVYYCAGDQYWWFYEYEYWGQGTQVTVSS | low polyreactivity |
| QVQLVESGGGLVQAGGSLRLSCAASGFTFAVYAMGWYRQAPGKERELVAAINRGGGSTYYADSVKGRFTISRDNAKNTVYLQMNSLKPEDTAVYYCNKRYRVWFDYWGQGTQVTLSS | high polyreactivity |
| QVQLVESGGGLVQAGGSLRLSCAASGFTFAVYVMGWYRQAPGKERELVATISFSVGSTYYADSVKGRFTISRDNAKNTVYLQMNSLKPEDTAVYYCNADPPPEYYPDKDNYWGQGTQVTVSS | low polyreactivity |
| QVQLVESGGGLVQAGGSLRLSCAASGFTFAWYAMGWYRQAPGKERELVAAITSSGGSTYYADSVKGRFTISRDNAKNTVYLQMNSLKPEDTAVYYCAARPWIWARAGYYWGQGTQVTVSS | high polyreactivity |
| QVQLVESGGGLVQAGGSLRLSCAASGFTFAYYAMGWYRPAPGKERELVAAITSGGRTNYADSVKGRFTISRDNAKNTVYLQMNSMKPEDTAVYYFAKGYRRVYGPLYYWGQGTQVTVSS | low polyreactivity |
| QVQLVESGGGLVQAGGSLRLSCAASGFTFAYYAMGWYRQAAGKERELVAAITVSGASTYYADSVKGRFTISRDNAKNTDYLQMNRLKPEETAVYYCARYYAIVSGYYDDGYWGQGTQVTVSS | high polyreactivity |
| QVQLVESGGGLVQAGGSLRLSCAASGFTFAYYAMGWYRQAPGKERELVAAISSRGGSTYADSVKGRFTISRDNAKNTVYLQMNSLKPEDTAVYYCNAVVPRSRYFSWTYDYWGQGTQVTVSS | high polyreactivity |
| QVQLVESGGGLVQAGGSLRLSCAASGFTFAYYAMGWYRQAPGKERELVAAISYSGGSTYYADSVKGRFTISRDNAKNTVYLQMNSLKPEDTAVYYCAAEAGRRYNWGYDYWGQGTQVTVSS | high polyreactivity |
| QVQLVESGGGLVQAGGSLRLSCAASGFTFAYYAMGWYRQAPGKERELVAAITRGGGRTFYADSVKGRFTISRDNAKNTVYLQMNSLKPEDTAVYYCAREVYRHYAPVGYDYWGQGTQVTVSS | high polyreactivity |
| QVQLVESGGGLVQAGGSLRLSCAASGFTFAYYTMGWYRQAPGKERELVAAINWSGGSTYYADSVKGRFTISRDNAKNTVYLQMNSLKPEDTAVYYSAPTCPYYNSRQGHQYDYWGQGTQVTVSS | high polyreactivity |
| QVQLVESGGGLVQAGGSLRLSCAASGFTFCSNAMGWYRQAPGKERELVAAITWSGGRTYYADSVKGRFTISRDNAKNTVYLQMNSLKPEDTAVYYCNAYRNWWWSQYDYWGQGTQVTVSS | high polyreactivity |
| QVQLVESGGGLVQAGGSLRLSCAASGFTFDENAMGWSRQAPGINYSRASTYYADSVKGRFTISRDNAKNTVYLQMISLKPEDTAVYYCNKASYWGSGFDYWGQGTQVTVSS | low polyreactivity |
| QVQLVESGGGLVQAGGSLRLSCAASGFTFDEYAMGWYRQAPGKEREFVATISSSGGSTYYADSVKGRFTISRDNAKNTVYLQMNSLKPEDTAVYYCAADVRRLYTSGVDYWWHSEYDYWGQGTQVTLSS | low polyreactivity |
| QVQLVESGGGLVQAGGSLRLSCAASGFTFDFYAMGWYRQAPGKERELVAAINWSGSSTYYADSVKGRFTISRDTAKNTVYLQMNSLKPEDTAVYYCAAQVYYTLFPDVYTMYYWGQGTQVTVSS | high polyreactivity |
| QVQLVESGGGLVQAGGSLRLSCAASGFTFDFYAMGWYRQAPGKERELVAAISKNDGTTYYADSVKGRFTISRDNAKNTVYLQMYSLKPVDTAVYYCAAESGYPVYTYVSSGDYWGQGTQVTVSS | low polyreactivity |
| QVQLVESGGGLVQAGGSLRLSCAASGFTFDGYAMGWYRQAPGKERELVAAISQSGGSTYYADSVKGRVTISRDNAKNTVYLQMNSLKPEDTAVYYCNAYTGYRIRYDYWGQGTQVTVSS | high polyreactivity |
| QVQLVESGGGLVQAGGSLRLSCAASGFTFDGYAMGWYRQAPGKERELVAAITRRGGRTYYADSVKGRFTISRDNAKNTVYLQMNSLKPEDTAVYFCAAERYGDRFYGAYDYWGQGTQVTVSS | high polyreactivity |
| QVQLVESGGGLVQAGGSLRLSCAASGFTFDINTMGWYRQAPGKERELVAAITYSGGSTYYADSVKGRFTISRDNAKNTVYLQMNSLKPEDTAVYYCATTWYFVASWYVAIYDYWGQGTQVTVSS | low polyreactivity |
| QVQLVESGGGLVQAGGSLRLSCAASGFTFDIYAMGWYRQAPGKERELVATISFTGDTTSYADSVKGRFTISRHNAKNTVYLQMNSLKPEDTAVYYCAADGSYPLSVGRENLHYAEFDYWGQGTQVTVSS | low polyreactivity |
| QVQLVESGGGLVQAGGSLRLSCAASGFTFDIYAMGWYRQAPGTERELVATISFTGDTTSYADSVKGRFTISRDNAKTTVYLQMNSLKPEDTAVYYCAADGSYPLSVGRENLHYAEFDYWGQGTQVTVSS | low polyreactivity |
| QVQLVESGGGLVQAGGSLRLSCAASGFTFDKYGMGWYRQAPGKERELVAAISSGGSTNYADSVKGRFTISRDNAKNTVYLQMNSLKPEDSAVYYCAARYYRYGRFRAYSWWTYGYWGQGTQVTVSS | high polyreactivity |
| QVQLVESGGGLVQAGGSLRLSCAASGFTFDNYGMGWYRQAPGKERDLVAAISTSGGSTYYADSVKGRFTISRDNEKNTVYFQMNSLKPEDTADYYCNVDFYEYSSVSYDYWGQGTQVTVSS | high polyreactivity |

| Sequence | polyreactivity (PSR sort gate) |
| --- | --- |
| QVQLVESGGGLVQAGGSLRLSCAASGFTFDQYTMGWYRQAPGKERELVAAISSSGGSTYYADSVKGRFTISRDNAKNTVYLQMNSLKPEDTAVFYCAARFLLTQRFSHDYWGQGTQVTVSS | low polyreactivity |
| QVQLVESGGGLVQAGGSLRLSCAASGFTFDSNGMGWYRQAPGKERELVAAISTGGSTYYADSVKGRFTISRDNAKTTVYIPMNSLKPEDTPVYYCARDTPYPDTWYGYWGQGTQVTVSS | low polyreactivity |
| QVQLVESGGGLVQAGGSLRLSCAASGFTFDTYAMGWYRQAPGKERELVAAISWSGGSTYYADSVKGRFTISRDNAKNTVYLQMNSLKPEDTAVYYCAAETPVDWWSTSYNYWGQGTQVTVSS | high polyreactivity |
| QVQLVESGGGLVQAGGSLRLSCAASGFTFDTYGMGWYRQAPGKERELVAAITGDGDSTYYADSVKGRFTISRDNAKNTVYLQMNSLKPEDTAVYYCATDQDVVGYWTIYYYAWGYEYCGQGTQVTVSS | low polyreactivity |
| QVQLVESGGGLVQAGGSLRLSCAASGFTFDVYAKGLYRQAPGKERELVAAISIGANTYYADSVKGRFTISRDNAKSTVYLQMNSLKPEDTAVYYCAKRAYAPQYGYWGQGTQVTVSS | low polyreactivity |
| QVQLVESGGGLVQAGGSLRLSCAASGFTFDWYAMGWYRPAPGTERELVAAISTRGTSTYYADSVKGRFTISRDNAKNTVYLQMNSLKPEDTAVYYCAKRSYHGGDYWGQGTQVTVSS | high polyreactivity |
| QVQLVESGGGLVQAGGSLRLSCAASGFTFDYNAMGWYRQAPGKERELVAAISNTGDSTYYADSVKGRFTISRDNAKNTVYLQMNSLKPEDTAVYYCAATSVPRYYYWGQGTQVTVSS | low polyreactivity |
| QVQLVESGGGLVQAGGSLRLSCAASGFTFDYYAMGWYRQAPGKERELVAAISKRGGSTYYADSVKGRFTISRDNAKNTVYLQMNSLKPEDTAVYYCAAASYSSPRTSSGNYWGQGTQVYVSS | high polyreactivity |
| QVQLVESGGGLVQAGGSLRLSCAASGFTFDYYAMGWYRQAPGKERELVAAISRRGTSTYYADSVKGRFTISRDNAKNTVYLQMYSLKPEDTAVYYCNAVTSSFYNRDSDYWGQGTQVTVSS | high polyreactivity |
| QVQLVESGGGLVQAGGSLRLSCAASGFTFDYYAMGWYRQAPGKERELVATINGASSTNYADSVKGRFTISRDNAKNTVYLQMNSLKPEDTAVYYCNARYYGPDFVLAYDYWGQGTQVTESS | low polyreactivity |
| QVQLVESGGGLVQAGGSLRLSCAASGFTFDYYDLGWYRQAPGKERELVAGITYSGGRTRYADSVKGRFTISRDNAKNTVYLQMNSLKPEDTSVDYCAARPGYPYRMNYWGQGTQVTVSS | low polyreactivity |
| QVQLVESGGGLVQAGGSLRLSCAASGFTFDYYTMGWSRQAPGKERELVAAISWSGGSTYYADSVKGRFTISRDNAKNTVYLQMNSLKPEDTAVYYCAVDGPKTDDIENYWGQGTQVTVSS | low polyreactivity |
| QVQLVESGGGLVQAGGSLRLSCAASGFTFEKYAMGRYIQAPGKERELDASISWSGGRTRYADSVKGRFTISRDNAKNTVYLQMNSLKPEDTAVYYCAARPLFGWRGYNYWGQGTQVTVSS | high polyreactivity |
| QVQLVESGGGLVQAGGSLRLSCAASGFTFENYAMGWYRQAPGKERELVAAITRTGGITYYADSVKGRFTISRDNAKNTVYLQLNSLKPEDTAVYYCDADDTWTRPKNYDRYDYWGQGTQVTVSS | low polyreactivity |
| QVQLVESGGGLVQAGGSLRLSCAASGFTFFIYAMGWYSQAPGKEREFVAAITGSGGSTYYADSVKGRFTISRDNAKNTVYLQMNSLKPEDTAVYYCNTAGYDYYSTQAYDYWGQGTQVTVSS | high polyreactivity |
| QVQLVESGGGLVQAGGSLRLSCAASGFTFFLNAMGWYRQAPGKERELVAAINRSGGSTYYADSVKGRFTISRDNAKNTVYLQMNSLKPEDTAVYYCATYSFWHYAYDYWGQGTQVTVSS | low polyreactivity |
| QVQLVESGGGLVQAGGSLRLSCAASGFTFFPNAMGWYRQAPGKERELFAAISRSDDNTFYADSVKGRITISRDNAKNTVYLQMNSLKPEDTAVYYCDKSAVPWRYPRGYDYWGQGTQVTVSS | low polyreactivity |
| QVQLVESGGGLVQAGGSLRLSCAASGFTFFRYAMGWYRQAPGKERDLVAAITSGGGRTYYADSVKGRFTISRYNAKNTVYLQMNRLKPEDTAVYYCNAVRRVDMYYWGLGTQVTVSS | high polyreactivity |
| QVQLVESGGGLVQAGGSLRLSCAASGFTFFVNTMGWYRQAPGKERELVAAISYDGGSTTYADSVKGRFTISRDNAKNTVYLQMNSLKPEDTAVYYCAAEYWAPFDYGTNSGYEYWGQGTQVTVSS | low polyreactivity |
| QVQLVESGGGLVQAGGSLRLSCAASGFTFFWNAMGWSRQAPGKERELVAVITFRGGDTYYADSVKGRFTISRDNAKNTVYLQMNSLKPEDTAVYYCNADWQSYGYLWHSSLYYYWGQGTQVTVSS | low polyreactivity |
| QVQLVESGGGLVQAGGSLRLSCAASGFTFFYNAMGWYRPAPGKERELGAVITWNGGTTYYADSVKGRFTISRDNAKNTVYLQMNSLKTEDTAVYYCNADGLILYDYWGQGTQVTVSS | low polyreactivity |
